The record followed here is patent US20130236458A1 (AbbVie / Abbott, published 2013).

Experiment [1] has as its target T1, Recombinant Human IL-13 (human, UniProt P35225 35-146, limits assumed). The experiment can be described thus: cell-based or functional assay.
The target in experiment [2] is T1, Recombinant Human IL-13. The experiment in a line: SPR (Biacore). How it is done: (§1) The BIACORE assay (Biacore, Inc, Piscataway, N.J.) determined the affinity of antibodies or DVD-Ig with kinetic measurements of on-rate and off-rate constants. Binding of antibodies or DVD-Ig proteins to a target antigen (for example, a purified recombinant target antigen) was determined by surface plasmon resonance-based measurements with a Biacore®1000 or 3000 instrument (Biacore® AB, Uppsala, Sweden) using running HBS-EP (10 mM HEPES [pH 7.4], 150 mM NaCl, 3 mM EDTA, and 0.005% surfactant P20) at 25° C. All chemicals were obtained from Biacore® AB (Uppsala, Sweden) or otherwise from a different source as described in the text. For example, approximately 5000 RU of goat anti-mouse IgG, (Fcγ), fragment specific polyclonal antibody (Pierce Biotechnology Inc, Rockford, Ill.) diluted in 10 mM sodium acetate (pH 4.5) was directly immobilized across a CM5 research grade biosensor chip using a standard amine coupling kit according to manufacturer's instructions and procedures at 25 μg/ml. Unreacted moieties on the biosensor surface were blocked with ethanolamine. Modified carboxymethyl dextran surface in flowcell 2 and 4 was used as a reaction surface. Unmodified carboxymethyl dextran without goat anti-mouse IgG in flow cell 1 and 3 was used as the reference surface. For kinetic analysis, rate equations derived from the 1:1 Langmuir binding model were fitted simultaneously to association and dissociation phases of all eight injections (using global fit analysis) with the use of Biaevaluation 4.0.1 software. Purified antibodies or DVD-Ig proteins were diluted in HEPES-buffered saline for capture across goat anti-mouse IgG specific reaction surfaces. Antibodies or DVD-Ig proteins to be captured as a ligand (25 μg/ml) were injected over reaction matrices at a flow rate of 5 μl/minute. The association and dissociation rate constants, kₒₙ (M⁻¹s⁻¹) and koff (s⁻¹) were determined under a continuous flow rate of 25 μl/minute. Rate constants were derived by making kinetic binding measurements at different antigen concentrations ranging from 10-200 nM. The equilibrium dissociation constant (M) of the reaction between antibodies or DVD-Ig proteins and the target antigen was then calculated from the kinetic rate constants by the following formula: KD=koff/kₒₙ. Binding was recorded as a function of time and kinetic rate constants were calculated.
(Surface plasmon resonance follows binding to a sensor surface in real time, without labels.)

Experiment [3] addresses T2, Recombinant Human IL-17 (human, UniProt Q16552 20-155, limits assumed).
T2 sequence (looked up): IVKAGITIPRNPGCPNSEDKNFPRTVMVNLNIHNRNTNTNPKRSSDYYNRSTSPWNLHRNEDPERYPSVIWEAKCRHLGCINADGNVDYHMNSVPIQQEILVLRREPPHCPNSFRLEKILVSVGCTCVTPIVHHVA
The experiment can be described thus: cell-based or functional assay.

For experiment [4], the target named is T2, Recombinant Human IL-17. The experiment can be described thus: SPR (Biacore). As for the experimental part: as §1

Positions count from the first letter of the chain named.

What is called Kd is the equilibrium constant for the complex coming apart. What is called koff is a measure of how fast the partners let go of each other. Broadly, the kon is the rate constant with which the complex forms.

T1 sequence (P35225 35-146 limits assumed): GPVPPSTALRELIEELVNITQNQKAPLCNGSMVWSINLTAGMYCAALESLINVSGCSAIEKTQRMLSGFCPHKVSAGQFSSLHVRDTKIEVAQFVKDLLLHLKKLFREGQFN

B1: AB398 (antibody, V domains shown)
VH: EVQLVQSGAEVKKPGASVKVSCKASGYTFTTYGVSWVRQAPGQGLEWMGEIYPGNYNTYYNEKFRGRVTMTTDTSTSTAYMELRSLRSDDTAVYYCARWRTSYFSDYGYFDYWGQGTTVTVSS
VL: DVVMTQSPLSLPVTLGQPASISCRSSQSLVHSHGNTYLHWYQQRPGQSPRLLIYTVSNRFSGVPDRFSGSGSGTDFTLKISRVEAEDVGVYYCSQSTHVPYTFGGGTKVEIKR
notes: parent antibody; also called AB398VH
B1: the “IL13 Neutralization Assay IC50 (TARC, A549 cells)” value with Recombinant Human IL-13 [1] came out at 0.082 nM. Further, in the experiment with Recombinant Human IL-13 [2], the Kd came to 0.045 nM, the koff came to 2.8e-05 s⁻¹ and the kon was 630000 M⁻¹ s⁻¹.

B2: DVD2163 (bispecific antibody)
VH: EVQLVQSGAEVKKPGESVKISCKASGGSFRSYGISWVRQAPGQGLEWMGGITHFFGITDYAQKFQGRVTITADESTTTAYMELSGLTSDDTAVYYCAREPNDFWNGYYDTHDFDSWGQGTTVTVSSASTKGPEVTLRESGPGLVKPTQTLTLTCTLYGFSLSTSDMGVDWIRQPPGKGLEWLAHIWWDDVKRYNPALKSRLTISKDTSKNQVVLKLTSVDPVDTATYYCARTVSSGYIYYAMDYWGQGTLVTVSS
VL: EIVLTQSPDFQSVTPKEKVTITCRASQNIGSELHWYQQKPDQSPKLLIKYASHSISGVPSRFSGSGSGTDFTLTINGLEAEDAATYYCHQSDTLPHTFGQGTKVDIKRTVAAPSVFIFPPDIQMTQSPSSLSASVGDRVTISCRASQDIRNYLNWYQQKPGKAPKLLIFYTSKLHSGVPSRFSGSGSGTDYTLTISSLQPEDIATYYCQQGLTPPLTFGGGTKVEIKR
For the molecule B2, the “C-Terminal VD IL13 Neutralization Assay IC50” value with Recombinant Human IL-13 [1] turned out to be 0.195 nM. The “N-Terminal VD IL17 Neutralization Assay IC50” value with Recombinant Human IL-17 [3] came to 0.0151 nM.

B3: AB274 (antibody, V domains shown)
VH: EVQLVQSGAEVKKPGSSVKVSCKASGGSFGGYGIGWVRQAPGQGLEWMGGITPFFGFADYAQKFQGRVTITADESTTTAYMELSGLTSDDTAVYYCARDPNEFWNGYYSTHDFDSWGQGTTVTVSS
VL: EIVLTQSPDFQSVTPKEKVTITCRASQDIGSELHWYQQKPDQPPKLLIKYASHSTSGVPSRFSGSGSGTDFTLTINGLEAEDAGTYYCHQTDSLPYTFGPGTKVDIKR
notes: parent antibody; also called AB274VH
Take B3: in the experiment with Recombinant Human IL-17 [4], the Kd was found to be 0.0074 nM, the koff was 8.2e-06 s⁻¹ and the kon was determined as 1.1e+06 M⁻¹ s⁻¹. The “IL17 Neutralization Assay IC50 (IL-6, HS27 cells)” value with Recombinant Human IL-17 [3] is 0.003 nM.

B4: AB275 (antibody, V domains shown)
VH: EVQLVQSGAEVKKPGESVKISCKASGGSFRSYGISWVRQAPGQGLEWMGGITHFFGITDYAQKFQGRVTITADESTTTAYMELSGLTSDDTAVYYCAREPNDFWNGYYDTHDFDSWGQGTTVTVSS
VL: B3 VL with D28N, P43S, T55I, G84A, T91S, S93T, Y96H, P100Q
notes: parent antibody; also called AB275VH
Turning to B4, in the experiment with Recombinant Human IL-17 [4], the dissociation constant (Kd) was 0.034 nM, the off-rate constant (koff) turned out to be 6.5e-05 s⁻¹ and the kon turned out to be 1.9e+06 M⁻¹ s⁻¹. Moreover, in the experiment with Recombinant Human IL-17 [3], the “IL17 Neutralization Assay IC50 (IL-6, HS27 cells)” value turned out to be 0.0052 nM.

B5: AB397 (antibody, V domains shown)
VH: EVTLRESGPGLVKPTQTLTLTCTLYGFSLSTSDMGVDWIRQPPGKGLEWLAHIWWDDVKRYNPALKSRLTISKDTSKNQVVLKLTSVDPVDTATYYCARTVSSGYIYYAMDYWGQGTLVTVSS
VL: DIQMTQSPSSLSASVGDRVTISCRASQDIRNYLNWYQQKPGKAPKLLIFYTSKLHSGVPSRFSGSGSGTDYTLTISSLQPEDIATYYCQQGLTPPLTFGGGTKVEIKR
notes: parent antibody; also called AB397VH
As to B5, in the experiment with Recombinant Human IL-13 [1], the “IL13 Neutralization Assay IC50 (TARC, A549 cells)” value was 0.033 nM. In the experiment with Recombinant Human IL-13 [2], the Kd was 0.13 nM, the koff was determined as 0.00012 s⁻¹ and the kon is 920000 M⁻¹ s⁻¹.

B6: AB273 (antibody, V domains shown)
VH: EVQLVQSGAEVKKPGSSVKVSCKASGYTFTDYEIHWVRQAPGQGLEWMGVNDPESGGTFYNQKFDGRVTLTADESTSTAYMELSSLRSEDTAVYYCTRYSKWDSFDGMDYWGQGTTVTVSS
VL: DIQMTQSPSSLSASVGDRVTITCRASSGIISYIDWFQQKPGKAPKRLIYATFDLASGVPSRFSGSGSGTDYTLTISSLQPEDFATYYCRQVGSYPETFGQGTKLEIKR
notes: parent antibody; also called AB273VH
On to B6, for which, in the experiment with Recombinant Human IL-17 [4], the dissociation constant Kd was less than 0.0005 nM, the koff is less than 1e-06 s⁻¹ and the kon worked out at 2e+06 M⁻¹ s⁻¹. Further, the “IL17 Neutralization Assay IC50 (IL-6, HS27 cells)” value with Recombinant Human IL-17 [3] came to 0.0198 nM.

B7: DVD2162 (bispecific antibody)
VH: EVTLRESGPGLVKPTQTLTLTCTLYGFSLSTSDMGVDWIRQPPGKGLEWLAHIWWDDVKRYNPALKSRLTISKDTSKNQVVLKLTSVDPVDTATYYCARTVSSGYIYYAMDYWGQGTLVTVSSASTKGPEVQLVQSGAEVKKPGESVKISCKASGGSFRSYGISWVRQAPGQGLEWMGGITHFFGITDYAQKFQGRVTITADESTTTAYMELSGLTSDDTAVYYCAREPNDFWNGYYDTHDFDSWGQGTTVTVSS
VL: DIQMTQSPSSLSASVGDRVTISCRASQDIRNYLNWYQQKPGKAPKLLIFYTSKLHSGVPSRFSGSGSGTDYTLTISSLQPEDIATYYCQQGLTPPLTFGGGTKVEIKRTVAAPSVFIFPPEIVLTQSPDFQSVTPKEKVTITCRASQNIGSELHWYQQKPDQSPKLLIKYASHSISGVPSRFSGSGSGTDFTLTINGLEAEDAATYYCHQSDTLPHTFGQGTKVDIKR
With B7, the “N-Terminal VD IL13 Neutralization Assay IC50” value with Recombinant Human IL-13 [1] was 0.126 nM. Besides, in the experiment with Recombinant Human IL-17 [3], the “C-Terminal VD IL17 Neutralization Assay IC50” value amounted to 0.0213 nM.

B8: DVD2154 (bispecific antibody)
VH: EVTLRESGPGLVKPTQTLTLTCTLYGFSLSTSDMGVDWIRQPPGKGLEWLAHIWWDDVKRYNPALKSRLTISKDTSKNQVVLKLTSVDPVDTATYYCARTVSSGYIYYAMDYWGQGTLVTVSSASTKGPEVQLVQSGAEVKKPGSSVKVSCKASGGSFGGYGIGWVRQAPGQGLEWMGGITPFFGFADYAQKFQGRVTITADESTTTAYMELSGLTSDDTAVYYCARDPNEFWNGYYSTHDFDSWGQGTTVTVSS
VL: DIQMTQSPSSLSASVGDRVTISCRASQDIRNYLNWYQQKPGKAPKLLIFYTSKLHSGVPSRFSGSGSGTDYTLTISSLQPEDIATYYCQQGLTPPLTFGGGTKVEIKRTVAAPEIVLTQSPDFQSVTPKEKVTITCRASQDIGSELHWYQQKPDQPPKLLIKYASHSTSGVPSRFSGSGSGTDFTLTINGLEAEDAGTYYCHQTDSLPYTFGPGTKVDIKR
For B8, the “N-Terminal VD IL13 Neutralization Assay IC50” value with Recombinant Human IL-13 [1] came to 0.43 nM. Besides, the “C-Terminal VD IL17 Neutralization Assay IC50” value with Recombinant Human IL-17 [3] was 0.351 nM.

B9: DVD2156 (bispecific antibody)
VH: B8 VH
VL: B7 VL with N148D, S163P, I175T, A204G, S211T, T213S, H216Y, Q220P
For B9, in the experiment with Recombinant Human IL-13 [1], the “N-Terminal VD IL13 Neutralization Assay IC50” value came out at 0.129 nM. The “C-Terminal VD IL17 Neutralization Assay IC50” value with Recombinant Human IL-17 [3] stood at 0.0155 nM.

B10: DVD2160 (bispecific antibody)
VH: B7 VH
VL: B8 VL with D141N, P156S, T168I, G197A, T204S, S206T, Y209H, P213Q
With B10, the “N-Terminal VD IL13 Neutralization Assay IC50” value with Recombinant Human IL-13 [1] worked out at 0.178 nM. The “C-Terminal VD IL17 Neutralization Assay IC50” value with Recombinant Human IL-17 [3] was 0.703 nM.

B11: AB399 (antibody, V domains shown)
VH: EVQLVQSGAEVKKPGASVKVSCKASGYTFTSYWMHWVRQAPGQGLEWIGNINPKGGSNIYNEKFQGRVTMTRDTSISTAYMELSRLRSDDTAVYYCARLDYFGDSFDLWGQGTTVTVSS
VL: DIQMTQSPSSLSASVGDRVTITCRASQGIRNYLNWYQQKPGKAPKLLIYYASNLEVGVPSRFSGSGSGTDYTLTISSLQPEDFATYYCQQDNRFPYTFGGGTKVEIKR
notes: parent antibody; also called AB399VH
In the case of B11, the “IL13 Neutralization Assay IC50 (TARC, A549 cells)” value with Recombinant Human IL-13 [1] was 0.043 nM. Besides, in the experiment with Recombinant Human IL-13 [2], the dissociation constant Kd turned out to be 0.019 nM, the dissociation rate constant (koff) came out at 6.4e-05 s⁻¹ and the on-rate (kon) stood at 3.4e+06 M⁻¹ s⁻¹.
